Reference: US10736988B2, “Bone substitute nanocomposites and methods of synthesis using multiphosphorylated peptides” (UNIVERSITY OF PITTSBURGH—OF THE COMMONWEALTH SYSTEM OF …, priority 2012, dated 2020)
Values joined by “and” are separate entries in the source; they are usually repeats but may differ in a detail not shown here. Equal entries are not always repeated. Where two headings read alike, the source gives them in different places.

Columns and labels:
[1] = test system: mixture of CK1 and CK2; assay: Mass spectrometry identification of phosphates incorporated by a mixture of CK1 and CK2; type: biochemical; details: MS, one hour
Experimental: For mass spectrometry (MS) analysis, the reaction was performed as above, however, radiolabeled ATP was not used and the reaction mixture was transferred into a Tube-O-DIALYZER with a MWCO of 1000 and dialyzed overnight.
For MALDI-TOF-MS analysis, the peptides and CHCA matrix (α-cyano-4-hydroxycinnamic acid, 10 μg/μl, in 50% acetonitrile containing 0.1% trifluoroacetic acid) solutions were premixed in a small Eppendorf tube, spun down and remixed three times, then applied directly to the sample plate. Once applied to the target, the sample was allowed to air dry. The samples were analyzed using an Applied Biosystems (Foster City, Calif.) Voyager DE Pro or 4700 Proteomics Analyzer TOF/TOF instrument. The samples were also analyzed by LC-MS/MS on a ThermoFischer (Waltham, Mass.) Surveyor LC System coupled to a ThermoFischer LCQ Deca XP Plus mass spectrometer equipped with a nanospray ion source and also a ThermoFischer LTQ-XL instrument. The LC System contained a sample trap followed by a C18 column (BioBasic C18 PicoFrit column, 10 cm×75 μM, New Objective, Inc., Woburn, Mass.). […]
Upon elution of the C18 column, the analyte was ionized by nano-capillary ESI. […] The MS/MS spectra were analyzed with BioWorks 3.2 Browser with the Sequest search engine. […]

[2] = target: T1, type I collagen fibrils (Rattus norvegicus, UniProt P02454+P02466); assay: On-grid mineralization of reconstituted collagen fibrils (TEM/SAED)
T1 construct: from an acidic rat tail collagen solution; from tissue; host or cells: rat tail
Experimental: Mineralization experiments were carried out using a modification of an “on grid” mineralization setup developed in a lab and published in the art. The type I collagen fibrils were reconstituted on carbon-coated Cu grids, mesh #400 (EMS, Hatfield, Pa.) from an acidic rat tail collagen solution. Concentrated 10×PBS (mono- and disodium phosphate totaling 40 mM and 1.5 M NaCl), phosphorylated with CK2 and nonphosphorylated protein stock solution, […] to obtain 4 mM PBS, 1.67 mM Ca and 15 μg/ml peptide. Prior to the experiments, the pH of concentrated 10×PBS was adjusted such that upon mixing, the pH of the final mineralization solution was 7.8. The TEM grids coated with reconstituted collagen fibrils were floated on 50 μL droplets of the mineralization solution at 100% humidity for 16 hours at 37° C.
TEM and selected area electron diffraction (SAED) studies were conducted using JEOL 1210 operated at 100 kV. The micrographs were recorded using an AMT CCD camera (AMT, Danvers, Mass.). An aluminum-coated TEM grid (EMS Hatfield, Pa.) was used as a standard for the calibration of SAED patterns for d-spacing calculations. The micrographs were analyzed using an ImageJ 1.38 software package (Bethesda, Md.).

[3] = test system: CK1 and CK2; assay: In vitro phosphorylation of peptide by CK1 and CK2 combined (32P scintillation); type: biochemical; details: for average number of phosphates per peptide: SD in parenthesis
Source text: (§1) R-SSD3 indicated by SEQ NO. […] ATP was used for the scintillation counter experiments.

[4] = test system: Casein Kinase 1 (CK1); details: for average number of phosphates per peptide: SD in parenthesis
Experimental: R-SSD3 indicated by SEQ NO. 2 was phosphorylated in vitro by CK1, CK2 or a mixture of both kinases. ATP was used as a source of phosphate; and [γ-^32P] ATP was used for the scintillation counter experiments. The standard assay mixture consisted of 50 mM Tris-HCl, pH 7.4, 5 mM MgCl2, 1 mM EGTA and 10 mM β-glycerophosphate. […] The samples were vortexed and kept for 20 minutes at room temperature before transferring into a water bath at 30° C. The reaction was started by adding 10 μl of ATP (cold Mg-ATP and 1 μCi of [γ-^32P] ATP) and the reaction mixture was incubated at 30° C. in a shaker for 1 hr. To assess the kinetics of the reactions, phosphorylation was allowed to proceed for 20 minutes, 1 hour, 4 hours and 24 hours before the reaction was stopped. The reaction was terminated by adding 40 μl of loading Tricine sample buffer (200 mM Tris-HCl, pH 6.8, 2% SDS, 40% glycerol, 0.04% Coomassie G-250 dye). The samples were then boiled in a water bath for five minutes and subjected to electrophoresis on 16.5% Tris-Tricine gel run using Tris-Tricine/SDS buffer (containing 100 mM Tris, 100 mM Tricine, 0.1% SDS, pH 8.3) at 100V for 1.5 hours.
In vitro phosphorylation assay was performed according to conventional procedure. 25 ul reactions containing 1 μg of R-SSD3 peptide indicated by SEQ NO. 2, in the presence and absence of 300 ng of either CK1 or CK2 or both containing 10 μCi ^32P γ [ATP]. The reactions were performed in triplicate at 30° C. for 1 hour, 4 hours and 24 hours using one batch of radiolabeled ATP and enzymes from a single lot.
The reaction products were purified using SDS-PAGE, visualized by autoradiography, and band intensities were quantified using a Kodak 1D 3.6 imaging system. After autoradiography, the gel was overlaid on the autoradiogram, the individual protein bands were excised and ^32P incorporation was determined using a liquid scintillation counter (Beckman LS6500 system). To calculate the number of moles of phosphates transferred to 1 ug of peptide ([…]) in the kinase reaction, the mean counts per minute obtained in the kinase reactions from triplicates (minus blank) are divided by the specific activity of the ^32Pγ[ATP] in the kinase assay, as follows.

[5] = target: T2, Casein Kinase 2 (CK2) (Homo sapiens, UniProt P68400); assay: In vitro phosphorylation of peptide by CK2 (32P scintillation / autoradiography); type: biochemical; details: for average number of phosphates per peptide: SD in parenthesis
T2 construct: purchased Millipore Inc. 14-197
Source text: as §1

T2 sequence (P68400 whole entry): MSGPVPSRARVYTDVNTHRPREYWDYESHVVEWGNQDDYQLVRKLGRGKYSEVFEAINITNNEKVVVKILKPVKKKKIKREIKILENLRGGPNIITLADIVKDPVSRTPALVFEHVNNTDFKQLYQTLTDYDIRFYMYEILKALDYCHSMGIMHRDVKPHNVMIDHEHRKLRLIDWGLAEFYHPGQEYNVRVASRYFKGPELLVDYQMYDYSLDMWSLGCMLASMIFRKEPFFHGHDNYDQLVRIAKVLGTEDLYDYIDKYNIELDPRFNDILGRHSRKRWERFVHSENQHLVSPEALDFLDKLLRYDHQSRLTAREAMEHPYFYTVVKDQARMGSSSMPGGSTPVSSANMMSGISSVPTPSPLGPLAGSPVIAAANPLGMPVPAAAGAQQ
T2 sequence (P67870 whole entry partner): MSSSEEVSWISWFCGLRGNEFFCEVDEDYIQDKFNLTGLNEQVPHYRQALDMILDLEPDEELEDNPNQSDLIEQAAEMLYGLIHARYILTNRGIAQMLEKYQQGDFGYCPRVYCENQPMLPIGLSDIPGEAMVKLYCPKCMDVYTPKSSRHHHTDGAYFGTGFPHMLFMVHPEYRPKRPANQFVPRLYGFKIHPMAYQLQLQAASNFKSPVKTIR
T1 sequence (P02454 152-1207 limits assumed): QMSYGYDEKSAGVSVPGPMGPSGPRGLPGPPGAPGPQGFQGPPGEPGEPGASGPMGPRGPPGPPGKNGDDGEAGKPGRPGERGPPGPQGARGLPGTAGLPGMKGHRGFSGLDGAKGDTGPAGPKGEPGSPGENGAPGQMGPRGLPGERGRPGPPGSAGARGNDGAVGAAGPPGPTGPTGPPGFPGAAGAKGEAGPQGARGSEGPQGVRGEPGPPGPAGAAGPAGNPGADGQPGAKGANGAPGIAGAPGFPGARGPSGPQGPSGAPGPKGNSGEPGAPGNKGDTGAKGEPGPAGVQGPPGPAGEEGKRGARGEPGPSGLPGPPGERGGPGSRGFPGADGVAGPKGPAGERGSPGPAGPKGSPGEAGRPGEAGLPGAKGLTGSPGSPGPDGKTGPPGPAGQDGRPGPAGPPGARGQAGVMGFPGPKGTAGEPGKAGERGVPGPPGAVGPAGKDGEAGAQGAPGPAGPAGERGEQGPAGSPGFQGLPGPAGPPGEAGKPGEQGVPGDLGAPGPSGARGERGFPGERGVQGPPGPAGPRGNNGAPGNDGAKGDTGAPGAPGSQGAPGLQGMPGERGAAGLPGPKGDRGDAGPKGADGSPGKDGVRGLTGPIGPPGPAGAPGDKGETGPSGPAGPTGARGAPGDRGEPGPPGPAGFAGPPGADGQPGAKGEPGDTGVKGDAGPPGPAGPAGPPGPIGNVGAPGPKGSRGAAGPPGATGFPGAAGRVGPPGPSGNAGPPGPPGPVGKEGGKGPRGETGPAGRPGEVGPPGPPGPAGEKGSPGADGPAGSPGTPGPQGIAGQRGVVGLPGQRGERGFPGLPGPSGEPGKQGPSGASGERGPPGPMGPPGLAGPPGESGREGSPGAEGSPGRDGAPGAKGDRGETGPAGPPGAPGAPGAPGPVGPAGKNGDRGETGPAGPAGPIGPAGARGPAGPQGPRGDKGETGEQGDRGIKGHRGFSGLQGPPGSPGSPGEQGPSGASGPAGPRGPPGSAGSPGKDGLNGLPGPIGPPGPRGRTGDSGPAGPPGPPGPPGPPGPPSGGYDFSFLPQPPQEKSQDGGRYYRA
T1 sequence (P02466 86-1125 limits assumed): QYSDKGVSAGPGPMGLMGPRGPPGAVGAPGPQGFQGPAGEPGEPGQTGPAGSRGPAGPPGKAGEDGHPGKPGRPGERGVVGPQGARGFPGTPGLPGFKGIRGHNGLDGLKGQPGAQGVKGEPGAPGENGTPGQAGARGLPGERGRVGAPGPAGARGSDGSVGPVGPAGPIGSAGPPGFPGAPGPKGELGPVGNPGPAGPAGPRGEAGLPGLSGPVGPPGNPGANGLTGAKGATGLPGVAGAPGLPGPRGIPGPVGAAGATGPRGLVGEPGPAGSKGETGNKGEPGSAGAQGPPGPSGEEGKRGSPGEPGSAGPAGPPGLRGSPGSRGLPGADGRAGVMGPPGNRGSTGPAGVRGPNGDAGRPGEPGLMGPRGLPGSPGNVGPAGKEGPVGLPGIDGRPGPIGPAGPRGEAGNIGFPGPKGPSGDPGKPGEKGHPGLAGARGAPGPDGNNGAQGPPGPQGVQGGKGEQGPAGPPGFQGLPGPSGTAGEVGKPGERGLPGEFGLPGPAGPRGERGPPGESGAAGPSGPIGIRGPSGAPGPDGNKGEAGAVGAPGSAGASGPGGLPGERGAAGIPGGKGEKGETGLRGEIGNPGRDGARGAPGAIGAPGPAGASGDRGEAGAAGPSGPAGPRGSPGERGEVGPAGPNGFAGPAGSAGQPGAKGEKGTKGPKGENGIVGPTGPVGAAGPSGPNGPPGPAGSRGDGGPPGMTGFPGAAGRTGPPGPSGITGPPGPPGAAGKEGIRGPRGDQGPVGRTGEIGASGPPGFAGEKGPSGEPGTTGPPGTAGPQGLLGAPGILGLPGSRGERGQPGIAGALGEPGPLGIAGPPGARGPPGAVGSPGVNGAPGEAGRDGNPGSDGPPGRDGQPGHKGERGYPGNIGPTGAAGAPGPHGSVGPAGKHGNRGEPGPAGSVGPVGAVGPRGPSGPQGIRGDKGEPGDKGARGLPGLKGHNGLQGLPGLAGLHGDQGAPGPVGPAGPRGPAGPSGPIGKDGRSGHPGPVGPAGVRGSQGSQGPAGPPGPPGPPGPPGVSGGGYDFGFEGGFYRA

B1: … (peptide)
chain: RRRDEDESSDSSDSSDSSDSSDSSDSSDSSDSSDSSDSSDSSDSSDSSDSSDSSDSSDSSDSSDSSDDEG
modifications: derived from consensus mammalian sequence of DSPP; (8)..(68) [Asp Ser Ser] repeats (n varies from 2 to 20); (1)..(3) Insertion of 3 Arg at the N terminus of the peptide; (4)..(7) Casein kinase 1 recognition motif; (69)..(71) Casein kinase 2 recognition motif
- maximum number of phosphates incorporated onto the peptide [1]: four out of six possible
- collagen fibril mineralization pattern ([2]; 15 μg/ml peptide, 16 hours, 37° C., pH 7.8, TEM): randomly oriented crystals formed throughout the grid
- mineral nucleation outside of the collagen fibrils ([2]; TEM, phosphorylated peptide experiments): suppressed mineral nucleation outside of the collagen fibrils
- share of all serines phosphorylated ([3]; CK1+CK2 group, 24 hours): 58%
- average number of phosphates per peptide ([3]; CK1 and CK2, 1 hour): 0.0191 (0.007) phosphates per peptide
- average number of phosphates per peptide ([3]; CK1 and CK2, 4 hours): 0.343 (0.124) phosphates per peptide
- average number of phosphates per peptide ([3]; CK1 and CK2, 24 hours): 3.5 phosphates per peptide and 3.4555 (1.755) phosphates per peptide
- average number of phosphates per peptide ([4]; CK1, 1 hour): 0.006 (0.002) phosphates per peptide
- average number of phosphates per peptide ([4]; CK1, 4 hours): 0.139 (0.103) phosphates per peptide
- average number of phosphates per peptide ([4]; CK1, 24 hours): 1.8 phosphates per peptide and 1.778 (1.196) phosphates per peptide
- share of all serines phosphorylated ([4]; CK1 group, 24 hours): 30%
- average number of phosphates per peptide ([5]; CK2, 1 hour): 0.0148 (0.015) phosphates per peptide
- average number of phosphates per peptide ([5]; CK2, 4 hours): 0.435 (0.099) phosphates per peptide
- average number of phosphates per peptide ([5]; CK2, 24 hours): 4.4 phosphates per peptide and 4.354 (0.957) phosphates per peptide
- share of all serines phosphorylated ([5]; CK2 group, 24 hours): 73%
